Consider 1 molecule from patent US20080171038A1 (KALOBIOS PHARMACEUTICALS, published 2008).

The target of test [1] is T1, Recombinant human GM-CSF (human, UniProt P04141 18-144, biotinylated for the SPR assay (sites not given)). The test is described as follows: cell-based or functional assay.
Test [2] addresses T1, Recombinant human GM-CSF. Briefly: surface plasmon resonance analysis, monovalent affinity; format not described.

T1 sequence (P04141 18-144 limits assumed): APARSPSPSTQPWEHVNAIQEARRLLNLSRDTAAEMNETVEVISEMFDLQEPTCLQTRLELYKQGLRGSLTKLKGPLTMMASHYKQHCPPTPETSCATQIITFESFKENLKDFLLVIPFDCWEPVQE

B1: chimeric 19/2 antibody (antibody, V domains shown)
VH: EVQLQQSGPELVKPGASVKISCKASGYTFTDYNIHWVKQSHGKSLDWIGYIAPYSGGTGYNQEFKNRATLTVDKSSSTAYMELRSLTSDDSAVYYCARRDRFPYYFDYWGQGTTLRVSS
VL: DIVMIQSQKFVSTSVGDRVNITCKASQNVGSNVAWLQQKPGQSPKTLIYSASYRSGRVPDRFTGSGSGTDFILTITTVQSEDLAEYFCQQFNRSPLTFGSGTKLELK
As a reminder, the Kd is the constant that tells how readily two partners part at equilibrium. Regarding B1, the “EC50 of inhibition of GM-CSF-dependent proliferation of a human TF-1 leukemia cell line (0.5 ng/ml GM-CSF)” value in test [1] was determined as 0.03 nM. Further, the equilibrium dissociation constant (Kd) in test [2] is approximately 0.01 nM.
